From patent US20230372536A1, “NANOMATERIAL AND METHODS OF USE THEREOF” (UNIVERSITY OF CONNECTICUT, priority 2020, published 2023)

B1: matrilin-3: Recombinant human matrilin-3 protein (R&D Systems), cartilage-specific ECM protein (protein, UniProt O15232 29-486, looked up)
Matrilin-3: DPVARPGFRRLETRGPGGSPGRRPSPAAPDGAPASGTSEPGRARGAGVCKSRPLDLVFIIDSSRSVRPLEFTKVKTFVSRIIDTLDIGPADTRVAVVNYASTVKIEFQLQAYTDKQSLKQAVGRITPLSTGTMSGLAIQTAMDEAFTVEAGAREPSSNIPKVAIIVTDGRPQDQVNEVAARAQASGIELYAVGVDRADMASLKMMASEPLEEHVFYVETYGVIEKLSSRFQETFCALDPCVLGTHQCQHVCISDGEGKHHCECSQGYTLNADKKTCSALDRCALNTHGCEHICVNDRSGSYHCECYEGYTLNEDRKTCSAQDKCALGTHGCQHICVNDRTGSHHCECYEGYTLNADKKTCSVRDKCALGSHGCQHICVSDGAASYHCDCYPGYTLNEDKKTCSATEEARRLVSTEDACGCEATLAFQDKVSSYLQRLNTKLDDILEKLKINEYGQIHR

What was measured:
hMSCs = assay: Cell proliferation (CCK-8); assay type: cell-based, human; details: for cell proliferation: 3 or 5 days of culture
Experimental: Cell proliferation. Five groups of samples were added to an untreated 96-well plate for the cell proliferation experiment. For the JBNT group, 3.75 μL of 1 mg mL^−1 JBNTs was added to 596.25 μL distilled water to obtain a 600 μL JBNT solution. The concentration of the solution was 6.25 μg mL^−1. For the TGF-β1 group, 7.5 μL of 10 μg mL^−1 TGF-β1 was dispersed in 592.5 μL distilled water to obtain a 0.125 μg mL^−1 test solution. For the matrilin-3 group, 30 μL of 10 μg mL^−1 matrilin-3 was dispersed in 570 μL distilled water to obtain a 0.5 μg mL^−1 test solution. For the J/T/M NM group, 7.5 μL of 10 μg mL^−1 TGF-β1 was mixed with 30 μL of 10 μg mL^−1 matrilin-3 and pipetted several times. Then, 3.75 μL of 1 mg mL^−1 JBNTs was added to the solution and pipetted. The J/T/M NM solution was diluted with 558.75 μL distilled water. The final concentrations of JBNT, TGF-β1, and matrilin-3 samples were 6.25 μg mL^−1, 0.125 μg mL^−1, and 0.5 μg mL^−1, respectively. As a control group, 600 μL distilled water was used. Each sample group was divided into 6 wells, with each well receiving a 100 μL sample. The three plates were placed into a −80° C. freezer for one hour and then freeze-dried with a lyophilized instrument.
hMSCs were seeded onto these plates. Each well received 100 μL cell suspension containing 5,000 cells. Three plates were incubated at 37° C. for 1 day, 3 days, or 5 days (5% CO2). After incubation, 10 μL CCK-8 solution was added to each well with cells. Then, each plate was incubated at 37° C. for another 2 h. The absorption values of the plates were measured with multi-mode microplate readers at 450 nm. A series of a known number of hMSCs were seeded onto a 96-well plate. After incubating for 4 h, the absorption values of the cells were measured with the CCK-8 assay. A standard curve was generated according to the absorption values and the numbers of hMSCs. Cell proliferation was calculated with the absorption standard curve.

[1] = free TGF-β1; cited from earlier work
Zeta-potential test = assay type: physicochemical; details: dispersed in H2O
Experimental: Zeta-potential test. Three groups of samples were prepared. For the matrilin-3 group, 160 μL of 10 μg mL^−1 matrilin-3 was dispersed in 640 μL H2O to obtain an 800 μL test solution. For the mixed matrilin-3/TGF-β1 group, 160 μL of 10 μg mL^−1 matrilin-3 was mixed with 40 μL of 10 μg mL^−1 TGF-β1 and pipetted several times. The mixture was then dispersed in 600 μL H2O to obtain an 800 μL test solution. For the J/T/M NM group, 160 μL of 10 μg mL^−1 matrilin-3 was mixed with 40 μL of 10 μg mL^−1 TGF-β1 and pipetted several times. Then, 20 μL of 1 mg mL^−1 JBNTs was added to the solution and pipetted several times. Finally, the J/T/M NM solution was dispersed in 580 μL H2O to obtain an 800 μL test solution. The zeta-potential values of the three groups of samples were tested with a Zetasizer Nano ZS.

Molecule | cell proliferation (hMSCs) | cell number (proliferation) (hMSCs; one day of culture) | plasma half-life [1] [h] | zeta-potential (Zeta-potential test)
TGF-β1: Recombinant human TGF-β1 (CHO derived, PeproTech), chondrogenic growth factor | more obvious effects related to the promotion of cell proliferation | significantly higher cell numbers | < 1.67 | 
B1 | moderately increase cell proliferation |  |  | approximately −15 mV
